The target in assay [1] is Bacterial His-tagged Reg-1α (human regenerating islet-derived protein 1-alpha) (human) (UniProt P05451). The assay can be described thus: SDS-PAGE with immunoblot, no cross-linker; bands of oligomers that persist in SDS-PAGE, detected with anti-Reg-1α (Figure 1C; time 0 of Figure 2A).
Assay [2] has the same target. The experiment in a line: cross-linking; 10 mM EDC/NHS, up to 30 min (0, 15, 30 min); Reg-1α with inactive calpain-2 at molar ratio 2/1, or Reg-1α alone; 50 mM Hepes pH 7.3, 100 mM NaCl, 1 mM DTT, 1 mM EGTA; SDS-PAGE 4-15% and immunodetection with anti-Reg-1α and anti-calpain-2.
Assay [3] addresses Calpain-2-cleaved Reg-1α (Reg-1αΔN1-4) (human). The experiment in a line: SDS-PAGE with immunoblot, no cross-linker; bands of oligomers that persist in SDS-PAGE, detected with anti-Reg-1α (Figure 1C; time 0 of Figure 2A).

Values joined by “and” are separate entries in the source; they are usually repeats but may differ in a detail not shown here. Equal values may be shown once.

“Bacterial His-tagged Reg-1α (human regenerating islet-derived protein 1-alpha) (from UniProt P05451 23-166) (natural protein)”: the stoichiometry N in assay [1] was 2 and 3; in assay [2], 4.
“Calpain-2-cleaved Reg-1α (Reg-1αΔN1-4) (domain or fragment)”: the stoichiometry N in assay [3] worked out at 2.

These data come from paper PMC9369050.
